Reference: article PMC3114107
Read-outs that look alike come from different tables or passages of the source.

Assays:
[Lys]plasminogen (human) [1] = steady-state kinetics of Pg activation
[Lys]plasminogen (human) [2] = steady-state kinetics of Pg activation; remark: listed apart in the source
[3] = biological target: [5F]FFR-[Lys]Pg ([Lys]plasminogen inactivated with ATA-FFR-CH2Cl and labeled with 5-(iodoacetamido)fluorescein) (human); assay: other fluorescence titration
[4] = biological target: [5F]FFR-[Lys]Pg ([Lys]plasminogen inactivated with ATA-FFR-CH2Cl and labeled with 5-(iodoacetamido)fluorescein) (human); assay: other fluorescence titration; remark: listed apart in the source

Sequence of [Lys]plasminogen (human) (P00747 whole entry): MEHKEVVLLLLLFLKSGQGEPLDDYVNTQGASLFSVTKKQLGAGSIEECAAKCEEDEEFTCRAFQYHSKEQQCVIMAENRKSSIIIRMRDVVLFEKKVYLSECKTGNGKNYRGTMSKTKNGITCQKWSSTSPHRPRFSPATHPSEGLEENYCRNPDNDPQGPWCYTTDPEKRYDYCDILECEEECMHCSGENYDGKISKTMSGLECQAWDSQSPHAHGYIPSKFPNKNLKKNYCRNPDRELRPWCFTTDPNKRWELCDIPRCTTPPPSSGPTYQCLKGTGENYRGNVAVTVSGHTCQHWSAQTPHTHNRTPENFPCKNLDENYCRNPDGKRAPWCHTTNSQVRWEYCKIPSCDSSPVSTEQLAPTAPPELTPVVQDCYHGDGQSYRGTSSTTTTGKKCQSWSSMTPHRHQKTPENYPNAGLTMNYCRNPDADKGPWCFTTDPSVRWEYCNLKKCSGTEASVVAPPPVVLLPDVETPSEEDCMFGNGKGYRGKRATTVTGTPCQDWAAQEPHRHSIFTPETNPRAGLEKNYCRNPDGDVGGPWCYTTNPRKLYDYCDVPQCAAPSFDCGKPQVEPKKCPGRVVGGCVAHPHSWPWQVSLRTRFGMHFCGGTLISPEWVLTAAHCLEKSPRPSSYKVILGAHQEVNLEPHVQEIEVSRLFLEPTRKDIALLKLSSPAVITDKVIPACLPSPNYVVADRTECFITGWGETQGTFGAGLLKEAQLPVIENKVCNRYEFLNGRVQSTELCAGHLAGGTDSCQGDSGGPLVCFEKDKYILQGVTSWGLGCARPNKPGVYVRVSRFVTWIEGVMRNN
Sequence of [5F]FFR-[Lys]Pg ([Lys]plasminogen inactivated with ATA-FFR-CH2Cl and labeled with 5-(iodoacetamido)fluorescein) (human) (P00747 whole entry): as above

## Native streptokinase (from UniProt P00779 27-440) (natural protein)
[Lys]plasminogen (human) [1]
  Kd: 0.0016 µM

## SKΔ(R253-L260) (from UniProt P00779 27-440) (natural protein)
[Lys]plasminogen (human) [2]
  Kd: 0.078 µM

## SKΔ(R253-L260)ΔK414-His6 (TEVp-cleaved His6-(TEVp cleavage site)-SKΔ(R253-L260)ΔK414-His6) (from UniProt P00779 27-440) (natural protein)
[3]
  Kd: 0.82 µM
[Lys]plasminogen (human) [1]
  Kd: 0.028 µM
[4]
  Kd: 0.47 µM

## recombinant wild-type streptokinase (from UniProt P00779 27-440) (natural protein)
[Lys]plasminogen (human) [2]
  Kd: 0.033 µM
[Lys]plasminogen (human) [1]
  Kd: 0.0016 µM

## wtSK-His6 (TEVp-cleaved His6-wtSK-His6) (from UniProt P00779 27-440) (natural protein)
[3]
  Kd: 0.29 µM
[Lys]plasminogen (human) [2]
  Kd: 0.032 µM
[4]
  Kd: 0.24 µM
